From patent publication US20150197558A1 (published 2015)
Numbering of substitutions follows the chain as printed.

How the values were obtained:
[1] = molecular target: T1, IHF from Pseudomonas aeruginosa (Pseudomonas aeruginosa, UniProt Q51472 2-100); experiment: BLI, ForteBio Octet QK, ratio of on and off rates
T1 construct: also called IHF (Pa); P. aeruginosa; not shown: poly-histidine tag
T1 sequence: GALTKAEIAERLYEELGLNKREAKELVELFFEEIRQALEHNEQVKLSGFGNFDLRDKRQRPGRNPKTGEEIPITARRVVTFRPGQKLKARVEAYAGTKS

[2] = molecular target: T2, IHF from Haemophilus influenzae (Haemophilus influenzae, UniProt P43723 1-96); experiment: BLI, ForteBio Octet QK, ratio of on and off rates
T2 construct: also called IHF (Hi); H. influenzae; not shown: poly-histidine tag
T2 sequence: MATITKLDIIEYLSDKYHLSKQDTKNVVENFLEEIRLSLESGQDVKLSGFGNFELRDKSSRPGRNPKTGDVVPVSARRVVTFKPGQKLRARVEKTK

[3] = molecular target: T3, IHF from Staphylococcus aureus (Staphylococcus aureus, UniProt Q5HFV0 1-90); experiment: BLI, ForteBio Octet QK, ratio of on and off rates
T3 construct: also called IHF (Sa); HU; not shown: poly-histidine tag
T3 sequence: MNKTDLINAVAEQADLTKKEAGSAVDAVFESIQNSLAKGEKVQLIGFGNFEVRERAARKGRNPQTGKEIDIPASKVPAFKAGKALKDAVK

[4] = molecular target: T4, IHF from Klebsiella pneumoniae (Klebsiella pneumoniae, UniProt A6TAI1 1-99); experiment: BLI, ForteBio Octet QK, ratio of on and off rates
T4 construct: also called IHF (Kp); K. pneumoniae
T4 sequence: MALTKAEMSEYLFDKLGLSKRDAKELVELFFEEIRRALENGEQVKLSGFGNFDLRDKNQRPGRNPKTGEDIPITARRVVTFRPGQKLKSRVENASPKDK

[5] = molecular target: IHF target of the pH table of Example 7 (homolog not stated); experiment: pH dependence of binding, pH 3.5; ELISA per legend of FIGS. 6A-6B
[6] = molecular target: IHF target of the pH table of Example 7 (homolog not stated); experiment: pH dependence of binding, pH 6.5; ELISA per legend of FIGS. 6A-6B
[7] = molecular target: IHF target of the pH table of Example 7 (homolog not stated); experiment: pH dependence of binding, pH 4.5; ELISA per legend of FIGS. 6A-6B
[8] = molecular target: IHF target of the pH table of Example 7 (homolog not stated); experiment: pH dependence of binding, pH 7.5; ELISA per legend of FIGS. 6A-6B
[9] = molecular target: IHF target of the pH table of Example 7 (homolog not stated); experiment: pH dependence of binding, pH 5.5; ELISA per legend of FIGS. 6A-6B
[10] = molecular target: T1, IHF from Pseudomonas aeruginosa; experiment: ELISA, antigen coated, half-maximal binding concentration printed as Affinity (pM)
[11] = molecular target: T5, IHF from Acinetobacter baumannii (Acinetobacter baumannii, UniProt A3M2B0 1-98); experiment: as above
T5 construct: also called Ab
T5 sequence: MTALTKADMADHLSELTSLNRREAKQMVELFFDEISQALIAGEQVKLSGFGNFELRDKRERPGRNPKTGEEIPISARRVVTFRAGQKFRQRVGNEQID

[12] = molecular target: T2, IHF from Haemophilus influenzae; experiment: as above
[13] = molecular target: T3, IHF from Staphylococcus aureus; experiment: as above
[14] = molecular target: T4, IHF from Klebsiella pneumoniae; experiment: as above
[15] = molecular target: IHF target of the pH table of Example 7 (homolog not stated); experiment: pH dependence of binding, pH 2.5; ELISA per legend of FIGS. 6A-6B
[16] = molecular target: T2, IHF from Haemophilus influenzae; experiment: ELISA
[17] = molecular target: T3, IHF from Staphylococcus aureus; experiment: ELISA
[18] = molecular target: T1, IHF from Pseudomonas aeruginosa; experiment: ELISA
[19] = molecular target: T4, IHF from Klebsiella pneumoniae; experiment: ELISA
[20] = molecular target: peptide 19 of the set of overlapping 15-mer peptides from the IHF of Staphylococcus aureus (Staphylococcus aureus); experiment: peptide binding on streptavidin plates
[21] = molecular target: peptide 20 of the set of overlapping 15-mer peptides from the IHF of Staphylococcus aureus (Staphylococcus aureus); experiment: peptide binding on streptavidin plates
[22] = molecular target: peptide 26 of the set of overlapping 15-mer peptides from the IHF of Staphylococcus aureus (Staphylococcus aureus); experiment: peptide binding on streptavidin plates
[23] = molecular target: T1, IHF from Pseudomonas aeruginosa; experiment: ELISA, antigen coated
[24] = molecular target: T5, IHF from Acinetobacter baumannii; experiment: ELISA, antigen coated
[25] = molecular target: T2, IHF from Haemophilus influenzae; experiment: ELISA, antigen coated
[26] = molecular target: T4, IHF from Klebsiella pneumoniae; experiment: ELISA, antigen coated

B1: TRL1068 (antibody, V domains shown)
VH: QVQLVESGPGLVKPSETLSLTCRVSGDSNRPSYWSWIRQAPGKAMEWIGYVYDSGVTIYNPSLKGRVTISLDTSKTRFSLKLTSVIAADTAVYYCARERFDRTSYKSWWGQGTQVTVSS
VL: DIVLTQAPGTLSLSPGDRATLSCRASQRLGGTSLAWYQHRSGQAPRLILYGTSNRATDTPDRFSGSGSGTDFVLTISSLEPEDFAVYYCQQYGSPPYTFGQGTTLDIK
[1]
  Kd: 1 nM
[2]
  Kd: 350 nM
[3]
  Kd: 1 nM
[4]
  Kd: 7 nM
[5]
  Kd: 1.2 nM
[6]
  Kd: 0.0076 nM
[7]
  Kd: 0.0236 nM
[8]
  Kd: 0.007 nM
[9]
  Kd: 0.009 nM
[10]
  EC50: 0.011 nM
[11]
  EC50: 0.01 nM
[12]
  EC50: 5 nM
[13]
  EC50: 0.015 nM
[14]
  EC50: 0.011 nM
[15]
  Kd: 2.7 nM

B2: TRL1070 (antibody, V domains shown)
VH: QVQLVQSGGTLVQPGGSLRLSCAASGFTFSYYSMSWVRQAPGKGLEWVANIKHDGTERNYVDSVKGRFTISRDNSEKSLYLQMNSLRAEDTAVYYCAKYYYGAGTNYPLKYWGQGTRVTVSS
VL: DILMTQSPSSLSASVGDRVTITCRASQGIRNDLGWYQQKPGKAPKLLIYAASSLQSGVPSRFSGSGSGTDFTLTISSLQPEDFATYYCLQDYNYPLTFGGGTKVEIKR
[16]
  OD: 0.11 OD
[17]
  OD: 0.3 OD

B3: TRL1087 (antibody, V domains shown)
VH: QVQLLESGPGLVRPSDTLSLTCTFSADLSTNAYWTWIRQPPGKGLEWIGYMSHSGGRDYNPSFNRRVTISVDTSKNQVFLRLTSVTSADTAVYFCVREVGSYYDYWGQGILVTVSS
VL: DIEMTQSPSSLSASVGDRITITCRASQGISTWLAWYQQKPGKAPKSLIFSTSSLHSGVPSKFSGSGSGTDFTLTITNLQPEDFATYYCQQKWETPYSFGQGTKLDMIR
[18]
  OD: 0.06 OD
[16]
  OD: 0.06 OD
[17]
  OD: 0.14 OD
[19]
  OD: 0.06 OD

B4: TRL1215 (antibody, V domains shown)
VH: QVQLVESGTEVKNPGASVKVSCTASGYKFDEYGVSWVRQSPGQGLEWMGWISVYNGKTNYSQNFQGRLTLTTETSTDTAYMELTSLRPDDTAVYYCATDKNWFDPWGPGTLVTVSS
VL: DIVMTQSPSASGSPGQSITISCTGTNTDYNYVSWYQHHPGKAPKVIIYDVKKRPSGVPSRFSGSRSGNTATLTVSGLQTEDEADYYCVSYADNNHYVFGSGTKVTVL
[17]
  OD: 1.4 OD

B5: TRL1330 (antibody, V domains shown)
VH: B4 VH
VL: B4 VL with M4L
[11]
  EC50: 0.017 nM
[13]
  EC50: 0.023 nM

B6: TRL1216 (antibody, V domains shown)
VH: QVQLVESGGGVVQPGGSLRVSCAASAFSFRDYGIHWVRQAPGKGLQWVAVISHDGGKKFYADSVRGRFTISRDNSENTLYLQMNSLRSDDTAVYYCARLVASCSGSTCTTQPAAFDIWGPGTLVTVSS
VL: DIMLTQPPSVSVSPGQTARITCSGDALPKKYTYWYQQKSGQAPVLLIYEDRKRPSEIPERFSAFTSWTTATLTITGAQVRDEADYYCYSTDISGDIGVFGGGTKLTVL
[16]
  OD: 0.06 OD
[17]
  OD: 0.5 OD

B7: TRL1218 (antibody, V domains shown)
VH: QVQLLESGADMVQPGRSLRLSCAASGFNFRTYAMHWVRQAPGKGLEWVAVMSHDGYTKYYSDSVRGQFTISRDNSKNTLYLQMNNLRPDDTAIYYCARGLTGLSVGFDYWGQGTLVTVSS
VL: DIVLTQSASVSGSPGQSITISCTGTSSDVGGYNYVSWYQQHPGKAPKLMIYDVTTRPSGVSDRFSGSKSGNTASLTISGLQAEDEADYYCSSYSSGSTPALFGGGTQLTVL
[18]
  OD: 0.09 OD
[16]
  OD: 0.04 OD
[19]
  OD: 0.06 OD

B8: TRL1230 (antibody, V domains shown)
VH: QVQLVQSGGGLVKPGGSLRLSCGASGFNLSSYSMNWVRQAPGKGLEWVSSISSRSSYIYYADSVQGRFTISRDNAKNSLYLQMNSLRAEDTAIYYCARVSPSTYYYYGMDVWGQGTTVTVSS
VL: DIVLTQPSSVSVSPGQTARITCSGDELPKQYAYWYQQKPGQAPVLVIYKDNERPSGIPERFSGSSSGTTVTLTISGVQAEDEADYYCQSADSSGTYVVFGGGTKLTVL
[18]
  OD: 0.3 OD
[16]
  OD: 0.06 OD
[17]
  OD: 0.1 OD
[19]
  OD: 0.07 OD

B9: TRL1232 (antibody, V domains shown)
VH: QVQLVESGAEVKKPGALVKVSCKASGYTFSGYYMHWVRQAPGQGLEWMGWINPKSGGTKYAQKFQGRVTMTRDTSISTAYMELSRLRSDDTAVYFCARGGPSNLERFLERLQPRYSYDDKYAMDVWGQGTTVTVSS
VL: DIVMTQSPGTLSLSPGARATLSCRASQSVSSIYLAWYQQKPGQAPRLLIFGASSRATGIPDRFSGSGSGTDFTLTISRLEPEDFAVYYCQQYGSSPYTFGQGTKLEIKR
[18]
  OD: 0.2 OD
[16]
  OD: 0.1 OD
[17]
  OD: 0.2 OD
[19]
  OD: 0.1 OD

B10: TRL1335 (antibody, V domains shown)
VH: QVQLVESGAEVKKPGESLKISCKGSGYNFTSYWIGWVRQMPGKGLEWMGVIYPDDSDTRYSPSFKGQVTISADKSISTAFLQWSSLKASDTAVYHCARPPDSWGQGTLVTVSS
VL: DIVMTQSPATLSVSPGERATLSCRASQSVSSNLAWYQQKPGLAPRLLIVGASNRATGIPARFSGSGSGTEFTLTISSLQSEDFAFYYCQQYNNWPFTFGPGTKVDVKR
[20]
  binding result: no binding
[21]
  binding result: no binding
[22]
  binding result: no binding

B11: TRL1337 (antibody, V domains shown)
VH: QVQLLESGPGLVKPSETPSLTCTVSGGSIRSYYWSWIRQPPGKGLEWIGYIYYSGSTNYNPSLKSRVTISVDMSKNQFSLKLSSVTAADTAMYYCARVYGGSGSYDFDYWGQGTLVTVSS
VL: DIVLTQSPSASGSPGQSVTISCTGTSSDVGGYNYVSWYQQLPGKAPKLMIYEVTKRPSGVPDRFSGSKSGNTASLTVSGLQAEDEADYYCSSFAGSNNHVVFGGGTKLTVL
[23]
  binding result: no binding
[24]
  binding result: no binding
[25]
  binding result: no binding
[26]
  binding result: no binding
